Reference: the supplement of paper PMC12338614

B1: library; numbered along this chain (parent)
chain: MEVVDPQQLGMFTEGELMSVGMDTFIHRIDSTEVIYQPRRKRAKLIGKYLMGDLLGEGSYGKVKEVLDSETLCRRAVKILKKKKLRRIPNGEANVKKEIQLLRRLRHKNVIQLVDVLYNEEKQKMYMVMEYCVCGMQEMLDSVPEKRFPVCQAHGYFCQLIDGLEYLHSQGIVHKDIKPGNLLLTTGGTLKISDLGVAEALHPFAADDTCRTSQGSPAFQPPEIANGLDTFSGFKVDIWSAGVTLYNITTGLYPFEGDNIYKLFENIGKGSYAIPGDCGPPLSDLLKGMLEYEPAKRFSIRQIRQHSWFRKKHPPAEAPVPIPPSPDTKDRWRSMTVVPYLEDLHGADEDEDLFDIEDDIIYTQDFTVPGQVPEEEASHNGQRRGLPKAVCMNGTEAAQLSTKSRAEGRAPNPARKACSASSKIRRLSACKQQ

Variants of: B1
Test: STK11 functional score (HeLa growth suppression), rescaled enrichment; synonymous median = 1, nonsense median = 0 (normalised score)
Settings: with HeLa; variant type: missense
In short: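 HeLa cells carrying an AAVS1 landing pad received codon-optimised STK11 libraries made by codon randomisation (POPCode), integrated by Bxb1, with three regions each transfected three times. Integrants that were BFP-negative and mCherry-positive were sorted by FACS 4–5 days after electroporation and then grown for about two weeks. Tiled amplicons from gDNA were sequenced on NextSeq at ~2 million reads per tile. The functional score is a wild-type-corrected log ratio of post- to pre-selection counts, rescaled to the synonymous and nonsense medians, merged across codons and replicate transfections, and given a bootstrapped error.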

STK11 functional score, by site and new letter:
M392: V 1.51; S 1.52; C 1.34; G 1.43; Y 1.04; F 1.17; D 1.19; R 0.973; I 1.42; L 1.57; N 0.559; W 0.68; A 1.56; P 1.63
A406: F 1.4; Q 1.56; I 1.6; E 1.45; D 1.4; K 1.28; R 1.59; S 1.41; V 1.52; P 1.21; L 1.57; M 0.606; T 1.42; W 1.46; C 1.52; H 1.6; G 1.33; Y 1.07; N 1.58
G394: H 1.6; W 1.29; V 1.29; I 1.51; E 1.26; D 1.32; M 1.62; K 1.6; C 1.28; F 1.17; Q 1.35; R 1.17; Y 1.38; L 1.59; N 0.969; P 1.52; S 1.46; A 1.32
K403: A 1.6; I 1.04; W 1.54; T 1.19; V 0.598; G 1.46; F 1.2; N 1.42; S 0.892; H 1.53; D 1.53; M 0.00927; L 1.25; Q 1.61; C 0.656; R 1.03; Y 1.59
E407: V 1.38; C 1.21; T 1.61; K 1.55; M 1.58; F 1.26; L 0.778; P 1.6; A 1.52; R 1.52; W 0.194; S 1.57; G 0.689; D 1.56; Q 0.809; I 1.61
E396: N 1.49; R 1.53; M 1.47; H 1.55; G 1.55; Q 1.18; T 1.08; A 1.29; S 1.18; F 1.41; V 1.55; D 1.45; Y 1.23; C 1.26; W 1.49; I 1.57; L 1.14
S404: K 1.56; N 1.52; D 1.18; A 1.31; Y 0.966; M 1.58; I 1.22; H 1.6; V 1.53; T 1.23; L 1.47; W 1.43; C 1.14; F 0.794; G 1.57; E 1.34
A410: E 1.34; K 1.6; G 1.23; F 1.4; I 1.54; D 1.17; H 1.23; C 1.33
S401: G 0.991; P 1.07; C 1.05; L 1.51; A 1.54; W 0.786; D 1.19; F 1.49; I 1.49; M 1.44; T 0.884; H 1.49; K 1.44; R 1.11; E 1.24; V 1.41; N 1.4
Q399: M 0.653; Y 1.42; N 1.39; C 1.23; I 1.05; S 0.903; V 0.994; E 1.47; A 1.11; F 1.27; H 1.13; P 1.35; K 0.826; W 1.43; L 1.31; G 1.51; D 1.39; R 0.852; T 1.29
L400: E 1.58; N 1.63; I 1.55; A 1.64; V 1.41; W 1.56; F 1.46; Y 1.55; D 1.19; S 1.07; K 0.775; T 1.11; H 1.42; Q 1.27; R 1.37; G 1.48
T402: H 0.157; W 1.44; M 1.23; V 0.686; S 1.31; E 1.59; K 1.3; I 1.25; P 1.54; N 0.935; A 1.42; L 1.23; D 1.21; F 1.18; C 1.33; Y 1.43; G 1.13
G408: N 1.54; W 1.48; E 1.54; T 1.61; L 1.59; M 1.56; V 1.2; A 1.61; H 1.63; I 1.51; S 1.59; R 1.59; F 1.24; Y 1.49; K 1.56
T395: Q 1.5; L 1.23; S 0.942; A 0.877; W 1.61; C 1.61; I 0.971; F 0.847; H 1.53; N 1.4; D 1.56; K 0.547; V 1.04; G 1.49; P 1.32; E 1.33; R 1.58; M 1.05; Y 1.47
V390: W 0.447; L 1.22; Q 1.63; R 1.4; T 1.59; P 1.52; Y 1.41; S 1.5
A398: M 1.63; I 1.13; N 1.15; G 1.1; T 1.3; L 1.16; D 1.18; W 0.886; C 1.35; Q 1.58; R 1.42; Y 1.23; V 1.01; F 1.12; K 1.53; E 1.55; S 1.16
A397: V 0.799; T 1.51; G 1.14; I 1.51; S 1.26; L 1.27; R 1.46; P 1.18; E 1.44; K 0.947; H 1.64; D 1.32; F 1.35; Y 1.38; C 1.04; N 0.679; M 1.62; W 0.847
R405: P 1.27; G 1.48; V 1.62; T 1.24; M 1.6; L 1.59; I 1.6; F 1.59; N 1.33; C 1.3; S 1.54; K 1.33; Y 0.397; H 1.59; D 0.895
N393: M 1.48; I 1.39; V 0.689; S 1.09; D 1.07; H 1.51; R 1.07; K 0.96; L 1.16; P 1.59; C 1.54; G 1.36; Y 1.51; A 1.59; E 1.48; T 1.48; F 1.52
C391: M 1.62; R 1.6; A 1.51; V 0.834; E 1.58; G 1.22; W 0.764; F 0.922; H 1.46; N 0.483; T 0.912; I 1.07; S 0.743; L 1.54
R409: E 1.57; G 1.25; D 1.09; K 1.39; I 1.24; S 1.02; L 1.02; V 1.22; T 1.47; W 1.42; M 1.15; F 0.845; A 1.49; P 1.57; N 1.55; C 1.28; Y 1.53
